Where no end group is shown, it is not given here. The star is where a group is joined. Biotin = O=C1N[C@H]2[C@H](CS[C@H]2CCCCC(=O)*)N1; Ahx = NCCCCCC(=O)O
Legend:
[1] = target: T1, GST–PPARα (ligand binding domain, TR-FRET) (Homo sapiens, UniProt Q07869); assay: TR-FRET cofactor peptide recruitment
T1 construct: gene PPARA
T1 sequence (Q07869 196-468 limits assumed): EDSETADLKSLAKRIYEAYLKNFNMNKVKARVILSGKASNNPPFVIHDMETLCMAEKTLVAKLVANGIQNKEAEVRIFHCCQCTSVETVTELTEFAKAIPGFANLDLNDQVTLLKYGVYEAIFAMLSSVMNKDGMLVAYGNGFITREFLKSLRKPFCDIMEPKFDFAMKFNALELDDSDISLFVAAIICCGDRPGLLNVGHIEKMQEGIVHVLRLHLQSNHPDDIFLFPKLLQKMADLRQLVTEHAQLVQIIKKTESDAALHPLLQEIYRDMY

[2] = target: T2, PPARγ (Gal4-PPARγ LBD, transactivation) (Mus musculus, UniProt P37238); assay: Gal4-LBD luciferase transactivation, BHK21 cells; assay type: cell-based; conditions: agonist; […] h, […] °C; unreliable
T2 construct: gene Pparg
T2 sequence (P37238 204-505): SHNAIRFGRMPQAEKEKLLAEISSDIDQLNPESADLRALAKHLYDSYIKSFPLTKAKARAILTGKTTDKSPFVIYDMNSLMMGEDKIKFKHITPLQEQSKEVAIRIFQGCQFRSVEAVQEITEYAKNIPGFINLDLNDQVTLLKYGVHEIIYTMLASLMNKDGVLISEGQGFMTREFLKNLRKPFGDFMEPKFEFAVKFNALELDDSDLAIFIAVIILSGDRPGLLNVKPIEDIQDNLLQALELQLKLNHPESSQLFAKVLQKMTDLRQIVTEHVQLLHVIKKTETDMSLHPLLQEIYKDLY

[3] = target: T3, PPARδ (Gal4-PPARδ LBD, transactivation) (Homo sapiens, UniProt Q03181); assay: Gal4-LBD luciferase transactivation, BHK21 cells; assay type: cell-based; conditions: agonist; […] h, […] °C; unreliable
T3 construct: gene PPARD
T3 sequence (Q03181 139-441): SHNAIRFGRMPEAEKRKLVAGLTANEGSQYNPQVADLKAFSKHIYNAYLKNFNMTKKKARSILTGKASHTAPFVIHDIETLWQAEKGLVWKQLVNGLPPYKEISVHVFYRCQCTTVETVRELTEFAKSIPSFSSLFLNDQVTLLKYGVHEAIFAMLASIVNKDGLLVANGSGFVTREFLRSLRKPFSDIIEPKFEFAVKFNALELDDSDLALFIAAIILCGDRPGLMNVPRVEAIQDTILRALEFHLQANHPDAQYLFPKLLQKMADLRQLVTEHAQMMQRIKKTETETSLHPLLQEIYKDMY

[4] = target: T4, GST–PPARα fusion protein (purified ligand binding domain of PPARα); assay: FRET or BRET; homogeneous TR-FRET as a1, 12-concentration dose–response of RO4899100; the EC50 is of the compound; delta ratio in % of the reference compound at 10 μM (RO4899100 for PPARα, edaglitazone for PPARγ)
T4 sequence (Q07869 whole entry, species assumed, looked up): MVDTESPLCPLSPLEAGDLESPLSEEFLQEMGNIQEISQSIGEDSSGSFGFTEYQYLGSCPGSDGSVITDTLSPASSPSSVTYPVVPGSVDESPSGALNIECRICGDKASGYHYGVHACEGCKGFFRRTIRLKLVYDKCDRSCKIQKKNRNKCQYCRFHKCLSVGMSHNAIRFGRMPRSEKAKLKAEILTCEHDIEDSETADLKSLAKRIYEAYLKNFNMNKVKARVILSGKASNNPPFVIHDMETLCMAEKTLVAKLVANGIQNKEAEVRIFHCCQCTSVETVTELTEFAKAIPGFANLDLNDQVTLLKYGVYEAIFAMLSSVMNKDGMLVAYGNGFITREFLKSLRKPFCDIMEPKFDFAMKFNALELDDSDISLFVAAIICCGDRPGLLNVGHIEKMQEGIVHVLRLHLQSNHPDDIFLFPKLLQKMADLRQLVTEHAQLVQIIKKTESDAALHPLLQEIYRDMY

[5] = target: T5, GST–PPARγ fusion protein (purified ligand binding domain of PPARγ); assay: FRET or BRET; homogeneous TR-FRET as a1, 12-concentration dose–response of muraglitazar; the EC50 is of the compound; delta ratio in % of the reference compound at 10 μM (RO4899100 for PPARα, edaglitazone for PPARγ); conditions: both partners purified
T5 chain: T2 sequence (P37238 204-505)

[6] = target: T5, GST–PPARγ fusion protein (purified …); assay: FRET or BRET; homogeneous TR-FRET as a1, 12-concentration dose–response of aleglitazar; the EC50 is of the compound; delta ratio in % of the reference compound at 10 μM (RO4899100 for PPARα, edaglitazone for PPARγ); conditions: both partners purified
[7] = target: T5, GST–PPARγ fusion protein (purified …); assay: FRET or BRET; homogeneous TR-FRET as a1, 12-concentration dose–response of edaglitazone; the EC50 is of the compound; delta ratio in % of the reference compound at 10 μM (RO4899100 for PPARα, edaglitazone for PPARγ); conditions: both partners purified
[8] = target: T4, GST–PPARα fusion protein (purified ligand binding domain of PPARα); assay: FRET or BRET; homogeneous TR-FRET as a1, 12-concentration dose–response of rosiglitazone; the EC50 is of the compound; delta ratio in % of the reference compound at 10 μM (RO4899100 for PPARα, edaglitazone for PPARγ)
[9] = target: T5, GST–PPARγ fusion protein (purified …); assay: FRET or BRET; homogeneous TR-FRET as a1, 12-concentration dose–response of tesaglitazar; the EC50 is of the compound; delta ratio in % of the reference compound at 10 μM (RO4899100 for PPARα, edaglitazone for PPARγ); conditions: both partners purified
[10] = target: T5, GST–PPARγ fusion protein (purified …); assay: FRET or BRET; homogeneous TR-FRET as a1, 12-concentration dose–response of rosiglitazone; the EC50 is of the compound; delta ratio in % of the reference compound at 10 μM (RO4899100 for PPARα, edaglitazone for PPARγ); conditions: both partners purified
[11] = target: T4, GST–PPARα fusion protein (purified ligand binding domain of PPARα); assay: FRET or BRET; homogeneous TR-FRET as a1, 12-concentration dose–response of edaglitazone; the EC50 is of the compound; delta ratio in % of the reference compound at 10 μM (RO4899100 for PPARα, edaglitazone for PPARγ)
[12] = target: T5, GST–PPARγ fusion protein (purified …); assay: FRET or BRET; homogeneous TR-FRET as a1, 12-concentration dose–response of pioglitazone; the EC50 is of the compound; delta ratio in % of the reference compound at 10 μM (RO4899100 for PPARα, edaglitazone for PPARγ); conditions: both partners purified
[13] = target: T5, GST–PPARγ fusion protein (purified …); assay: FRET or BRET; homogeneous TR-FRET as a1, 12-concentration dose–response of farglitazar; the EC50 is of the compound; delta ratio in % of the reference compound edaglitazone at 10 μM; conditions: both partners purified
[14] = target: T4, GST–PPARα fusion protein (purified ligand binding domain of PPARα); assay: FRET or BRET; homogeneous TR-FRET as a1, 12-concentration dose–response of aleglitazar; the EC50 is of the compound; delta ratio in % of the reference compound at 10 μM (RO4899100 for PPARα, edaglitazone for PPARγ)
[15] = target: T4, GST–PPARα fusion protein (purified ligand binding domain of PPARα); assay: FRET or BRET; homogeneous TR-FRET as a1, 12-concentration dose–response of muraglitazar; the EC50 is of the compound; delta ratio in % of the reference compound at 10 μM (RO4899100 for PPARα, edaglitazone for PPARγ)
[16] = target: T4, GST–PPARα fusion protein (purified ligand binding domain of PPARα); assay: FRET or BRET; homogeneous TR-FRET as a1, 12-concentration dose–response of fenofibric acid; the EC50 is of the compound; delta ratio in % of the reference compound RO4899100 at 10 μM
[17] = target: T4, GST–PPARα fusion protein (purified ligand binding domain of PPARα); assay: FRET or BRET; homogeneous TR-FRET as a1, 12-concentration dose–response of tesaglitazar; the EC50 is of the compound; delta ratio in % of the reference compound at 10 μM (RO4899100 for PPARα, edaglitazone for PPARγ)
[18] = target: T4, GST–PPARα fusion protein (purified ligand binding domain of PPARα); assay: FRET or BRET; homogeneous TR-FRET as a1, 12-concentration dose–response of pioglitazone; the EC50 is of the compound; delta ratio in % of the reference compound at 10 μM (RO4899100 for PPARα, edaglitazone for PPARγ)
[19] = target: T5, GST–PPARγ fusion protein (purified …); assay: FRET or BRET; homogeneous TR-FRET as a1, 12-concentration dose–response of RO4899100; the EC50 is of the compound; delta ratio in % of the reference compound at 10 μM (RO4899100 for PPARα, edaglitazone for PPARγ); conditions: both partners purified

Cc1oc(-c2ccccc2)nc1CCOc1ccc(CC2SC(=O)NC2=O)c2sccc12 (stereo not drawn) [Edaglitazone]
EC50 [1]: 1050 nM

Cc1nc(-c2ccc(C(F)(F)F)cc2)ccc1CN(C)C(=O)c1cccc(OC(C)(C)C(=O)O)c1 [RO4899100, 2-methyl-2-(3-{methyl-[2-methyl-6-(4-trifluoromethyl-phenyl)pyridin-3-ylmethyl]carbamoyl}phenoxy)propionic acid]
PPARδ / EC50 [nM] [2]: 19 900 nM

CC(C)(Oc1ccc(C(=O)c2ccc(Cl)cc2)cc1)C(=O)O [Fenofibric acid]
EC50 [3]: 1060 nM | PPARδ / EC50 [2]: 1470 nM

B1: NCoR ID2 cofactor peptide (nuclear receptor co-repressor, interaction domain 2) (peptide)
peptide: {Biotin-Ahx}-ADPASNLGLEDIIRKALMGSF
notes: nuclear receptor co-repressor (NCoR), ID2; also called NCoR2; NcoR2; source: synthetic peptide (Jerini or Biosynthan, Berlin)
EC50 of RO4899100 for displacement [4]: 18.5 nM | EC50 of muraglitazar for displacement [5]: 63.4 nM | EC50 of aleglitazar for displacement [6]: 15.3 nM | EC50 of edaglitazone for displacement [7]: 57.1 nM | EC50 of rosiglitazone for displacement [8]: 3000 nM | delta ratio with rosiglitazone [8]: -31% | EC50 of tesaglitazar for displacement [9]: 537 nM | EC50 of rosiglitazone for displacement [10]: 497 nM | EC50 of edaglitazone for displacement [11]: 1950 nM | delta ratio with edaglitazone [11]: -44% | EC50 of pioglitazone for displacement [12]: 9420 nM | EC50 of farglitazar for displacement [13]: 13.6 nM | EC50 of aleglitazar for displacement [14]: 1.7 nM | delta ratio with aleglitazar [14]: -61% | EC50 of muraglitazar for displacement [15]: 139 nM | delta ratio with muraglitazar [15]: -50% | EC50 of fenofibric acid for displacement [16]: 1900 nM | delta ratio with fenofibric acid [16]: -55% | EC50 of tesaglitazar for displacement [17]: 646 nM | delta ratio with tesaglitazar [17]: -54% | EC50 of pioglitazone for displacement [18]: 3220 nM | delta ratio with pioglitazone [18]: -54%

B2: SRC1_M2 cofactor peptide (steroid receptor co-activator 1, motif 2) (peptide)
peptide: {Biotin-Ahx}-CPSSHSSLTERHKILHRLLQEGSPS
notes: source: synthetic peptide (Jerini or Biosynthan, Berlin)
EC50 of muraglitazar for recruitment [5]: 5.7 nM | EC50 of aleglitazar for recruitment [6]: 3.2 nM | EC50 of edaglitazone for recruitment [7]: 9.8 nM | EC50 of tesaglitazar for recruitment [9]: 24.4 nM | EC50 of rosiglitazone for recruitment [10]: 18.5 nM | EC50 of pioglitazone for recruitment [12]: 196 nM | EC50 of farglitazar for recruitment [13]: 3.8 nM | EC50 of RO4899100 for recruitment [19]: 2080 nM

B3: SRC1_M4 cofactor peptide (steroid receptor co-activator 1, motif 4) (peptide)
peptide: {Biotin-Ahx}-TSGPQTPQAQQKSLLQQLLTE
notes: as for B2
EC50 of muraglitazar for recruitment [5]: 6.1 nM | EC50 of aleglitazar for recruitment [6]: 3.4 nM | EC50 of tesaglitazar for recruitment [9]: 25.5 nM | EC50 of rosiglitazone for recruitment [10]: 23.5 nM | EC50 of pioglitazone for recruitment [12]: 222 nM | EC50 of farglitazar for recruitment [13]: 3.3 nM | EC50 of RO4899100 for recruitment [19]: 1450 nM

B4: CBP cofactor peptide (cAMP responsive element binding protein (CREB)-binding protein) (peptide)
peptide: {Biotin-Ahx}-SGNLVPDAASKHKQLSELLRGGSGS
notes: as for B2
EC50 of muraglitazar for recruitment [5]: 4.3 nM | EC50 of aleglitazar for recruitment [6]: 3.3 nM | EC50 of edaglitazone for recruitment [7]: 7.2 nM | EC50 of tesaglitazar for recruitment [9]: 13.9 nM | EC50 of rosiglitazone for recruitment [10]: 10.4 nM | EC50 of pioglitazone for recruitment [12]: 79.1 nM | EC50 of farglitazar for recruitment [13]: 3 nM | EC50 of RO4899100 for recruitment [19]: 1990 nM

B5: TRAP220 cofactor peptide (thyroid hormone receptor-associated protein complex 220 kDa component, motif 2) (peptide)
peptide: {Biotin-Ahx}-GNTKNHPMLMNLLKDNPAQDF
notes: thyroid hormone receptor-associated protein complex 220 kDa component (TRAP220), motif 2, residues 637-657; also called TRAP220_M2; TRAP220 M2; source: synthetic peptide (Jerini or Biosynthan, Berlin)
EC50 of muraglitazar for recruitment [5]: 6.2 nM | EC50 of aleglitazar for recruitment [6]: 3.2 nM | EC50 of edaglitazone for recruitment [7]: 9.5 nM | EC50 of tesaglitazar for recruitment [9]: 31.6 nM | EC50 of rosiglitazone for recruitment [10]: 41.3 nM | EC50 of pioglitazone for recruitment [12]: 431 nM | EC50 of farglitazar for recruitment [13]: 3.5 nM | EC50 of RO4899100 for recruitment [19]: 4410 nM
